Ends that are not written are not given here.

From article PMC12661054 (2025) come the findings set out here.

The target of assay [1] is GST-TOPBP1(BRCT0-2 1-290) K250E (human, UniProt Q92547 1-290, K250E). The assay can be described thus: FP.
Assay [2] addresses T1, GST-TOPBP1(BRCT0-2 1-290) WT (human, UniProt Q92547 1-290).
T1 chain: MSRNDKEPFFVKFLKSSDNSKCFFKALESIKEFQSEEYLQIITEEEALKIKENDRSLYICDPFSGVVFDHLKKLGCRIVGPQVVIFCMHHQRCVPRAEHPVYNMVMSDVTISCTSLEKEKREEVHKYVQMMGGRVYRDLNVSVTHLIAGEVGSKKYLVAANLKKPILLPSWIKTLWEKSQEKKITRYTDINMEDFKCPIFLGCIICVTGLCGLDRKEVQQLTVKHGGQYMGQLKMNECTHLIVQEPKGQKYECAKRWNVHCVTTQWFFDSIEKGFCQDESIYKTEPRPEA
The assay can be described thus: FP.

What is called Kd is the constant that tells how readily two partners part at equilibrium. Read a high Kd as a looser complex. Turning to fluorescein-GYGTSWLVPATPLASRSR (also: phosphothreonine at Thr1260, position in chain not mapped) [Flu-SLX4_pT1260], the equilibrium dissociation constant (Kd) was determined as 3.55 µM in assay [1] and 3.29 µM in assay [2].
